Assay results: patent US20170233490A1 (Hoffmann-La Roche, published 2017)
Blank lines part the entries; values can stand above or below the binder they belong to.

How the values were obtained:
HER3 ECD-HRG complex [1] = molecular target: T1, HER3 ECD-HRG complex (human, UniProt P21860 20-643); assay: SPR Biacore 3000, antibody captured via anti-human Fc, 25 C
T1 construct: HER3 ECD preincubated with a 3- to 6-fold molar excess of Heregulin ('open' conformation); biotinylated Her3-ECD in the ribosome display; also called HER3-ECD/HRG1β
Procedure: (§1) A CM5 series sensor was mounted into the system and was normalized in HBS-ET buffer (10 mM HEPES pH 7.4, 150 mM NaCl, 3 mM EDTA, 0.005% w/v Tween 20) according to the manufacturer's instructions. The sample buffer was the system buffer supplemented with 1 mg/ml CMD (Carboxymethyldextran, Sigma #86524). The system operated at 25° C. 10000 RU monoclonal murine anti-human Fc antibody (MAK<h-Fc> M-R10Z8 E9, Roche Diagnostics GmbH, Penzberg, Germany) were immobilized using EDC/NHS chemistry on all four flow cells. The sensor was deactivated using 1M ethanolamine.

HER3 ECD-HRG complex [2] = molecular target: T1, HER3 ECD-HRG complex; assay: SPR Biacore 3000, sequential injection: HER2-ECD first, then HER3-ECD/HRG1β, 270 nM each
Procedure: as §1
(§2) The association and dissociation rates were monitored for 10 minutes and 8 minutes, respectively.

HER3 ECD-HRG complex [3] = molecular target: T1, HER3 ECD-HRG complex; assay: SPR Biacore 3000, sequential injection: HER3-ECD/HRG1β first, then HER2-ECD, 270 nM each
Procedure: as §1, §2

[4] = molecular target: T2, human HER1 (full length, on cells) (human, UniProt P00533 25-1210); assay: IHC (Ventana Benchmark XT) on formalin-fixed, paraffin-embedded HEK293 cells transiently transfected with full length HER1
T2 construct: HEK293 cells transfected with full length HER1, fixed and embedded (IHC); also called EGFR
Procedure: (§3) All selected clones were tested for reactivity and specificity in IHC. […] After an additional fixation in formalin overnight the Agarose blocks were embedded in paraffin. Untransfected HEK293 cells were used as negative controls and treated accordingly to the transfected cells. After paraffin embedding 3 μm thin sections were prepared using a microtome. The sections were mounted on glass microscopy slides and dried for 2 h. All further steps of the immunohistochemical staining procedure were carried out using a Ventana Benchmark XT. The slides were dewaxed and antigen retrieval was performed by applying heat for 1 hour. For antigen retrieval the Ventana buffer CC1 was used. The antibodies were used at a concentration of 1 μg/ml. For the detection of bound antibody the Ventana UltraView detection kit was used.

TtSlyDcas [5] = molecular target: T3, TtSlyDcas; assay: ELISA, coated antigen 0.5 µg/ml, hybridoma supernatant
T3 construct: scaffold without hairpin insert, negative control
T3 chain: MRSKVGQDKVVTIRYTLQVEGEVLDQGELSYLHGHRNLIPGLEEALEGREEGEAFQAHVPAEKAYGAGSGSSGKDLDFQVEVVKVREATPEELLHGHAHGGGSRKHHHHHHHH
Procedure: (§4) For the ELISA the screening an antigen down format was used. […] Hybridoma Supernatant was added to the plates and incubated for 1 h at room temperature. Bound antibody was detected with a HRP-labeled F(ab′)₂ goat anti-mouse Fcγ (Dianova) and ABTS (Roche) was used as a HRP-substrate.

TgSlyDΔIF [6] = molecular target: T4, TgSlyDΔIF; assay: as above
T4 construct: scaffold without hairpin insert, negative control
T4 chain: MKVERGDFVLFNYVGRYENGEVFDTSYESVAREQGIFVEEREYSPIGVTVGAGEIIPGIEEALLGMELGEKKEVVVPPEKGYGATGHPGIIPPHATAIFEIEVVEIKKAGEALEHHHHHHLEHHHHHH
Procedure: as §4

[7] = molecular target: T5, human HER2 Extracellular Domain (ECD) (human, UniProt P04626 23-652); assay: ELISA, coated antigen, hybridoma supernatant
T5 construct: human recombinant, 69.6 kDa; also called Her2 ECD; HER2_ECD
Procedure: as §4

[8] = molecular target: T6, human HER1 Extracellular Domain (ECD) (human, UniProt P00533 25-645); assay: ELISA, coated antigen, hybridoma supernatant
T6 construct: also called Her1 ECD; HER1-ECD
Procedure: as §4

[9] = molecular target: T7, human HER2 (full length, on cells) (human, UniProt P04626 23-1255); assay: IHC (Ventana Benchmark XT) on formalin-fixed, paraffin-embedded HEK293 cells transiently transfected with full length HER2
T7 construct: HEK293 cells transfected with full length HER2 (IHC); MCF-7 cells (co-immunoprecipitation)
Procedure: as §3

[10] = molecular target: T5, human HER2 Extracellular Domain (ECD); assay: ELISA, coated antigen
Procedure: as §4
(§5) As negative controls the scaffold proteins TtSlyDcas and TgSlyDΔIF were used.

TtSlyDcas-Her3 = molecular target: T8, TtSlyDcas-Her3; assay: ELISA, coated antigen
T8 chain: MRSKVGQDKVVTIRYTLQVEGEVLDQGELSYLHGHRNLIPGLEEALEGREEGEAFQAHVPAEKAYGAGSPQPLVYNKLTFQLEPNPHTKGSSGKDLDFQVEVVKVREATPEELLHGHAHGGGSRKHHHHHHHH
Procedure: as §4, §5

TtSlyDcas [11] = molecular target: T3, TtSlyDcas; assay: ELISA, coated antigen
Procedure: as §4, §5

[12] = molecular target: T9, human HER3 Extracellular Domain (ECD) (human, UniProt P21860 20-643); assay: ELISA, coated antigen
T9 construct: human recombinant, 68 kDa; 'closed' conformation without ligand; also called Her3 ECD; Her-3 ECD
Procedure: as §4, §5

TgSlyDcys-Her3 = molecular target: T10, TgSlyDcys-Her3; assay: ELISA, coated antigen
T10 chain: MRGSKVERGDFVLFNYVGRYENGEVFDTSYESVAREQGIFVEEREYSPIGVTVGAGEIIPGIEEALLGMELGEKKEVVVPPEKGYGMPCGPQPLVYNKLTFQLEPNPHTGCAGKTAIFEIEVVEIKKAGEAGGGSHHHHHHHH
Procedure: as §4, §5

[13] = molecular target: T11, human HER4 Extracellular Domain (ECD) (human, UniProt Q15303 26-651); assay: ELISA, coated antigen
T11 construct: also called Her4 ECD; HER4-ECD
T11 sequence: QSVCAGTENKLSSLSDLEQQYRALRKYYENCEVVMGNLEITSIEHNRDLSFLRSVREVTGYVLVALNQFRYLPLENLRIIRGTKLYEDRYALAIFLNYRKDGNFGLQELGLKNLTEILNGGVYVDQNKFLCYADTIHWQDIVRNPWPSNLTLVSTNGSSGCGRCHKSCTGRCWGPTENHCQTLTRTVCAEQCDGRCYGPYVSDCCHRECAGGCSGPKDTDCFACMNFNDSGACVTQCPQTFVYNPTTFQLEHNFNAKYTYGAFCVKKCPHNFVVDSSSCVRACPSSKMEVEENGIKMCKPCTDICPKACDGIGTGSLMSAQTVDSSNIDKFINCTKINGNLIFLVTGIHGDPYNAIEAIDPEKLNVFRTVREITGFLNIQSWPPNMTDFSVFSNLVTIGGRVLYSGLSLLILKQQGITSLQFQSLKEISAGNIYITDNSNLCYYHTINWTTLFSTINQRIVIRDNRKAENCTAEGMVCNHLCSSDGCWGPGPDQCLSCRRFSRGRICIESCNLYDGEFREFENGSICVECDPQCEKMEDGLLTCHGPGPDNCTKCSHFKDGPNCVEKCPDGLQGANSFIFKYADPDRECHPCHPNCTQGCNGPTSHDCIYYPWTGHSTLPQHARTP
Procedure: as §4, §5

[14] = molecular target: T6, human HER1 Extracellular Domain (ECD); assay: ELISA, coated antigen
Procedure: as §4, §5

TgSlyDser-Her3 = molecular target: T12, TgSlyDser-Her3; assay: ELISA, coated antigen
T12 chain: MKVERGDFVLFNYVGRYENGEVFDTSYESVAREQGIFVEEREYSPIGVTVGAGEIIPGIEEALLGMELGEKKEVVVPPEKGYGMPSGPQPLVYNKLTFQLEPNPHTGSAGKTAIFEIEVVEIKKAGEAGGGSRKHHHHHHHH
Procedure: as §4, §5

TtSlyDcys-Her3 = molecular target: T13, TtSlyDcys-Her3; assay: ELISA, coated antigen
T13 chain: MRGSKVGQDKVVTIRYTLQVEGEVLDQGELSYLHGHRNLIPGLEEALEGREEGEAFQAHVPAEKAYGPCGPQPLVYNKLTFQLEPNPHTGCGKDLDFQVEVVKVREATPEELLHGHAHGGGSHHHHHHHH
Procedure: as §4, §5

TgSlyDΔIF [15] = molecular target: T4, TgSlyDΔIF; assay: ELISA, coated antigen
Procedure: as §4, §5

Kd (HER3 ECD-HRG complex [1]): 3.9 nM
MR (Molar Ratio) (HER3 ECD-HRG complex [1]): 0.5
koff (HER3 ECD-HRG complex [1]): 0.00033 s⁻¹
kon (HER3 ECD-HRG complex [1]): 84000 M⁻¹ s⁻¹
t1/2-diss (HER3 ECD-HRG complex [1]): 35 min
MR (molar ratio), second injection (HER3 ECD-HRG complex [2]): 0.7
MR (molar ratio), first injection (HER3 ECD-HRG complex [3]): 0.8
B1: bispecific HER3/HER2 antibody DIBxPERT (bispecific antibody, human IgG1, kappa)
heavy 1: not shown
light 1: DIQMTQSPSSLSASVGDRVTITCKASQDVSIGVAWYQQKPGKAPKLLIYSASYRYTGVPSRFSGSGSGTDFTLTISSLQPEDFATYYCQQYYIYPYTFGQGTKVEIKSSASTKGPSVFPLAPSSKSTSGGTAALGCLVKDYFPEPVTVSWNSGALTSGVHTFPAVLQSSGLYSLSSVVTVPSSSLGTQTYICNVNHKPSNTKVDKKVEPKSC
heavy 2: not shown
light 2: QIVLTQSPAIMSASPGERVTITCSASSSVSYMHWFQQKPGTSPKLLIYSTSNLASGVPARFSGSGSGTSYSLTISRMEAEDAATYYCQQRSSYPFTFGSGTKLEIKRTVAAPSVFIFPPSDEQLKSGTASVVCLLNNFYPREAKVQWKVDNALQSGNSQESVTEQDSKDSTYSLSSTLTLSKADYEKHKVYACEVTHQGLSSPVTKSFNRGEC
notes: also called DIBxPERT CrossMab

binding result [4]: no binding (tested: 1 µg/ml)
binding result (TtSlyDcas [5]): no binding
binding result (TgSlyDΔIF [6]): no binding
binding result [7]: no binding
binding result [8]: no binding
binding result [9]: no binding (tested: 1 µg/ml)
ELISA signal [10]: 0.025
ELISA signal (TtSlyDcas-Her3): 1.76
ELISA signal (TtSlyDcas [11]): 0.04
ELISA signal [12]: 3.15
ELISA signal (TgSlyDcys-Her3): 1.78
ELISA signal [13]: 3.19
ELISA signal [14]: 0.024
ELISA signal (TgSlyDser-Her3): 1.98
ELISA signal (TtSlyDcys-Her3): 1.52
ELISA signal (TgSlyDΔIF [15]): 0.04
B2: M-15-02 (antibody, V domains shown)
VH: QVQLQQSGAELAKPGASVKMSCKTSGYTLTDYWIHWVKQRPGQGLEWIGYINPYTGYTESNQKFKDKATLTADKSSNTAYIQLSSLTSEDSAVYYCARPYYYGDYWGQGTTLTVSS
VL: QIVLTQSPAIMSASPGERVTITCSASSSVSYMHWFQQKPGTSPKLLIYSTSNLASGVPARFSGSGSGTSYSLTISRMEAEDAATYYCQQRSSYPFTFGSGTKLEIK
notes: murine hybridoma clone
